Assay results: article PMC8914840

Biological target: human alpha thrombin (human, UniProt P00734;P00734 328-363;364-622)
Test: electrochemical aptamer sensor (square-wave voltammetry); 1-500 nM thrombin; 100 Hz optimal; concentration-dependent peak current decrease; LOD 14.7 nM (not a Kd); Electrodes soaked in PBS before measurement (137 mM NaCl, 2.7 mM KCl, 10 mM Na2HPO4, 1.8 mM KH2PO4, pH 7.4); thrombin assay buffer and temperature not given in

TAAGTTCATCTCCCCGGTTGGTGTGGTTGGT (structured_DNA, 5' SH-(CH2)6; 3' amine conjugated to arPES) [PES-modified TBA (arPES-TBA)]
binding result: binds
